test: soluble on expression in E. coli; label from the status in PepcDB or PDB records

Sequence	soluble on expression in E. coli
MQQINFYRQRVAINVLAKDIANAKAIYEAAEGHAVIGVLSAQFATVEEGVPEVKRWMAEVPSISVGLGAGDPAQYYKAAMIAAHTHPAHVNQTFTGSGFAAGALAATGGEQTHINALVSPTGTPGEVVISTGVSSSQGTPARVSCEAAVRMMQDMGAHAAKFFPMGGEKSLPELYALATTAARHGMTLIEPTGGISLDNFGIILQTCLEAGVPRVMPHVYSSIIDPQTGNTRPEDIIRLMEIVKALV	not soluble
METSETDSTGNTQTCETRQTRSNSWTAWGIHAISTITDGAKQLYTKALGLDELEEKKLEDEEGVTHVEVDEKTKRDLWNQLSTLVGADVINMRLSLPVWLFEPTTALQRMCETLQFHQLLDMAATCEEPVERDALVAAFTVSAFAHTERVYKPFNPVLGETFEWTSRDGTTRVLCEQVSHHPPVSVSYTEGPGWVAQEVFSCNAYFLGNSVEIRNTGSRYVYLTSFDERYEWTLPVSAAQNLFVGGSFIDHYGELILRSSPRGSVTSLTFTKCGWFGRGRYAVNGDIVDADGYRVMELSGEWNRGLVGFRLDKSSGERVDAKSLWYAGEHKPAVKRDKYNFTNFTYELLEVPDNAESIIPPTDSRFRPDRRALEGNNLSLANLEKVRVENIQRERENQRQKTGTTYVPAWFYQDDNNEWHFGGKYWKETRNMSEDQKEQMKLW	soluble
MGSDKIHHHHHHMEIVLAKRAGFCFGVKRATQMAFEAAEKEGETFTLGPIIHSPQVVQRLEGMGVKVLSDLEGIGNGTVIIRSHGVTSAELEDAVRRQLEVVDATCPFVKKAQEHVKRLSHDGYTVVVVGDADHPEVQGIVSYAEGPVHVVGSGEEAARLPNMKKVGVVAQTTQSFETLKNVVKECLLKGGEIRVFNTICDATAVRQDEAKALAREVDCMIVIGGFNSANTKRLAEVCSELQPRTYHIETAQELDASWFQGVERVGVTAGASTPKWLIDEVIERIQEFDNKKKG	not soluble
MIKIYNGDKLTRQPFFIKLINYLQIHDDVTLRQIKRNFADTEHLERSIEDYVQAGYVLRENKHYYNAFELLENLDGLTLDSQIFVDDQSSIYQDLLALTFETYLSNQTNAALIIEKTDISRDALTLSNYFFKLNENFPLSRKQKPLYHLLGDVNPNYALKYMTTFLLKFWGKDVVKQKRPDIFVQALVLLGYLEQVGKQSYCLKMTFDKEKLIFAS	not soluble
ATRMAPVIMVPGSSASQNRFDSLITELGKETPKKHSVLKLTVQTDGTIKYSGSIAANDNEPFIVIGFANNRDGKANIDKQAVWLNTAFKALVKTYHFNHFYALGHSNGGLIWTLFLERYLKESPKVHIDRLMTIASPYNMESTSTTAKTSMFKELYRYRTGLPESLTVYSIAGTENYTSDGTVPYNSVNYGKYIFQDQVKHFTEITVTGANTAHSDLPQNKQIVSLIRQYLLAETMPDKVRQKNAQRVQN	soluble
MSLAAPTLTGGKLTVGIQGTHAELGVLLYPGVQMAAVHGLSDLFEVANRIAGEQPQAQLPRLRVSHWQASGELPPVRVHDSLAEAPGALLAVLIPPSLAGFSSHQSSAALMDWLRQQHAAGATLGGVCVGSILLAESGLLDGRSATTHWTSAQAFAERYPQVRLEADKPIVDDGDLITSAGLMAWAELGLRLVNRLLGPSIASATARFLVMEHSASASQCGSNFAPILSHGDGAILKLQHWLQANGAVDVSLPVMAQQAGLEPRTLLRRFRAATGLKPTQYCQHLRVGKARELLEFTNGSIDHIAWTVGYQDPATFRSLFRKITGLAPSEYRNRFGATSTAASREGHHHHHH	soluble
MKYLHTEKDYLDLLLAVKRKFDYQRSIVPYIVYFLLKTGMRFGELVALTWNEVDFDRGLLKTYRRYNTLSHKFVPPKNKTSIRMVPIDEECIKILRLLQTEQERANMELGIKNRYRMIFQHFGYIHSVPDIASVNKALSVLLNELDIYPIITTKGARHTYGSYLWHKGFDLGVIAKILGHRDISMLVEVYGHTLEEKIFEEFNQIRDIWKDCSLEHHHHHH	not soluble
MKLASLKSTRSRDGELCIVNRLLTAAIRVPHIASTLQYALDHWDVVEPKLQLVYQQLNDNQIEDAFAFAPELCASPLPRAYQWADGSAYVNHVELVRKARGAEMPADFWTNPLMYQGGSDAFLGPRDPILVSSEAYGIDFESEVAVITDDVPMGIDHTNAAHHIKLLMLVNDVSLRNLIPEELAKGFGFFQSKPASSFSPVAITPDELGSYWDGQRVNLPLISHLNEQLFGQPNAGVDMTFSFPELIQHAAKTRFLTAGTIIGSGTVSNLDRSKGSSCIAEKRMLEMIEFGQAKTPFMRFGDRIRIEMLDGQGYSLFGSIDQIVTKYDKDSL	not soluble

From the DeepSol protein solubility set
